# Results taken from patent US20220283175A1 (ENCODIA, published 2022).
# No end group written: not given here. *: point of attachment. Benzoyl(4-SO2NH2) = NS(=O)(=O)c1ccc(C(=O)*)cc1; M65 = not defined here; M67 = not defined here; M75 = not defined here; M76 = not defined here; M88 = not defined here
# B1: (SAB)AAAAE (peptide)
# peptide: {Benzoyl(4-SO2NH2)}-AAAAE-NH2
# SMILES: C[C@H](NC(=O)c1ccc(S(N)(=O)=O)cc1)C(=O)N[C@@H](C)C(=O)N[C@@H](C)C(=O)N[C@@H](C)C(=O)N[C@@H](CCC(=O)O)C(N)=O
# B2: (SAB)FAAAE (peptide)
# peptide: {Benzoyl(4-SO2NH2)}-FAAAE-NH2
# SMILES: C[C@H](NC(=O)[C@H](C)NC(=O)[C@H](Cc1ccccc1)NC(=O)c1ccc(S(N)(=O)=O)cc1)C(=O)N[C@@H](C)C(=O)N[C@@H](CCC(=O)O)C(N)=O
# B3: (SAB)SAAAE (peptide)
# peptide: {Benzoyl(4-SO2NH2)}-SAAAE-NH2
# SMILES: C[C@H](NC(=O)[C@H](C)NC(=O)[C@H](CO)NC(=O)c1ccc(S(N)(=O)=O)cc1)C(=O)N[C@@H](C)C(=O)N[C@@H](CCC(=O)O)C(N)=O
# B4: (SAB)LAAAE (peptide)
# peptide: {Benzoyl(4-SO2NH2)}-LAAAE-NH2
# SMILES: CC(C)C[C@H](NC(=O)c1ccc(S(N)(=O)=O)cc1)C(=O)N[C@@H](C)C(=O)N[C@@H](C)C(=O)N[C@@H](C)C(=O)N[C@@H](CCC(=O)O)C(N)=O
# B5: (SAB)EAAAE (peptide)
# peptide: {Benzoyl(4-SO2NH2)}-EAAAE-NH2
# SMILES: C[C@H](NC(=O)[C@H](C)NC(=O)[C@H](CCC(=O)O)NC(=O)c1ccc(S(N)(=O)=O)cc1)C(=O)N[C@@H](C)C(=O)N[C@@H](CCC(=O)O)C(N)=O
# B6: (SAB)AFAAE (peptide)
# peptide: {Benzoyl(4-SO2NH2)}-AFAAE-NH2
# SMILES: C[C@H](NC(=O)c1ccc(S(N)(=O)=O)cc1)C(=O)N[C@@H](Cc1ccccc1)C(=O)N[C@@H](C)C(=O)N[C@@H](C)C(=O)N[C@@H](CCC(=O)O)C(N)=O
# B7: (SAB)HAAAE (peptide)
# peptide: {Benzoyl(4-SO2NH2)}-HAAAE-NH2
# SMILES: C[C@H](NC(=O)[C@H](C)NC(=O)[C@H](Cc1c[nH]cn1)NC(=O)c1ccc(S(N)(=O)=O)cc1)C(=O)N[C@@H](C)C(=O)N[C@@H](CCC(=O)O)C(N)=O
# B8: M76-AAEIR (peptide)
# peptide: M76-AAEIR
# modifications: not fully specified; printed as M76-AAEIR; reading uncertain
# B9: M75-AAEIR (peptide)
# peptide: M75-AAEIR
# modifications: not fully specified; printed as M75-AAEIR; reading uncertain
# B10: M65-AAEIR (peptide)
# peptide: M65-AAEIR
# modifications: not fully specified; printed as M65-AAEIR; reading uncertain
# B11: M88-AAEIR (peptide)
# peptide: M88-AAEIR
# modifications: not fully specified; printed as M88-AAEIR; reading uncertain
# B12: M67-AAEIR (peptide)
# peptide: M67-AAEIR
# modifications: not fully specified; printed as M67-AAEIR; reading uncertain
# Molecular target: T1, wild-type human carbonic anhydrase II (hCAII) protein (human, UniProt P00918 4-259)
# Assay: cell-based or functional assay
row,"IC50 (µM), hCAII functional assay [µM]",Binder
1,0.0484,B1
2,0.045,B2
3,0.153,B3
4,0.0284,B4
5,0.0993,B5
6,0.183,B6
7,0.148,B7

# Molecular target: T1, wild-type human carbonic anhydrase II …
# Assay: cell-based or functional assay
# Remark: another data set of the same source
row,"NTM-AAEIR IC50 (µM), colorimetric IC50 assay [µM]",Binder
1,0.077,B8
2,0.067,B9
3,0.515,B10
4,0.095,B11
5,0.073,B12

# Molecular target: T1, wild-type human carbonic anhydrase II …
# Assay: cell-based or functional assay
# Remark: another data set of the same source
row,P2 dependence: fold difference of IC50 (SABA-AF against SABA-AA) [fold],Binder
1,~4,B6
